According to paper PMC6166989 (PLoS Pathogens, 2018):

Target: the molecule itself
Test: SEC

B1: PV-2C-[change] (poliovirus 2C^ATPase residues 116–329) (domain or fragment)
chain: SKHRIEPVCLLVHGSPGTGKSVATNLIARAIAERENTSTYSLPPDPSHFDGYKQQGVVIMDDLNQNPDGADMKLFCQMVSTVEFIPPMASLEEKGILFTSNYVLASTNSSRISPPTVAHSDALARRFAFDMDIQVMNEYSRDGKLNMAMATEMCKNCHQPANFKRCCPLVCGKAIQLMDKSSRVRYSIDQITTMIINERNRRSNIGNCMEALFQ
stoichiometry N: 4
